This is an account of results in article PMC10659534 (Research Square, 2023).

Holding throughout (assay): ELISA
Holding throughout (conditions): both partners purified
Background: ELISA stands for enzyme-linked immunosorbent assay.

The target in experiment [1] is H7N9 HA1 based on A/Shanghai/2/2013 (Influenza A virus A/Shanghai/2/2013 …, UniProt R4NN21, strain).
Experiment [2] addresses T1, recombinant H7N7 HA based on A/Netherlands/219/2003 (Influenza A virus …, UniProt Q6VMK1).
T1 construct: source: bought: Immune Technologies, New York, NY

Experiment [3] addresses H7N9 HA (A/Shanghai/2/2013) pre-treated with Endoglycosidase H (Influenza A virus A/Shanghai/2/2013 …, UniProt R4NN21).
The target in experiment [4] is T2, soluble recombinant H7N9 HA based on A/Shanghai/2/2013 (Influenza A virus A/Shanghai/2/2013 …, UniProt R4NN21).
T2 construct: source: bought: Immune Technologies, New York, NY

A further experiment addresses H15N8 HA (Influenza A virus H15N8, strain not …, UniProt Q82565, strain).

B1: H7.HK3 (antibody, V domains shown)
VH: QVQLVQSGSELKRPGASVKVSCRASGYTFTSYTINWVRQAPGQGLEWMGWINTSTGDPTYAQGFTGRFVFSLDTSVSTAYLEISRLKAEDTAVYYCARAFGLTVVRGGIVGVWGQGTTVTVSS
VL: not shown
notes: also called H7.HK3 mAb
Take B1: the binding result (in experiment [1]; in experiment [2]; in experiment [3]; in experiment [4]; in the experiment with H15N8 HA) was “binds” each time.

B2: H7.HK4 (antibody, V domains shown)
VH: QVQLQESGPGLVKPSETLSLTCTVSGGSVRSASYAWSWIRQPPGKGLEWIGDIYYSGTTNYNPSLKSRVTLSVDTAKNRFSLRLRSVTAADTAVYHCARERYYYGSSGDFDYWGQGTLVTVSS
VL: DIQMTQSPSSLSASVGDRVTITCRASQGIRNYLAWFQQKPGQAPKSLIFAASSLHTGVPSRFSGSGSGTDFTLTISSLQPEDFATYYCQHYNSYPPTFGQGTKLEIK
notes: also called H7.HK4 mAb
As for B2, the binding result in experiment [1] is “no binding”; in experiment [2], “binds”; in experiment [3], “binds”; in experiment [4], “binds”; in the experiment with H15N8 HA it was “binds”.

B3: H7.HK2 (antibody, V domains shown)
VH: QVQLQGSGPGLLRPSETLSLTCSVSGVSINSYYWSWVRQPPGKALEWIGYIYYSGNTNYNPSLESRVTISVDRSKNQFSLKMTSVTAADTARYFCARQGIFGDYGSDYWGPGTLVTVSS
VL: DIVMTQSPLSLPVTPGEPASISCRSNQSLQHSNGYVHLDWYRQKPGQSPHLLIYLGFNRASGVPDRFSGGGSGTDFTLKISRVEAEDVGVYYCMQGLQTPFTFGPGTTVDLK
notes: also called H7.HK2 mAb; H7.HK2 human IgG1
Take B3: the binding result in experiment [1], in experiment [2], in experiment [3] and in experiment [4] was “binds” throughout.

B4: H7.HK1 (antibody, V domains shown)
VH: QVQLQESGPGLVKPSETLSLTCSVSGGSINSYYWTWIRQPPGKGLEWVGYIYHSGSTSYNPSLKSRITISVAPSKNHFSLELTSMTAADTAVYYCARLGGHGDYGSDYWGQGTLVTVSS
VL: DIVMTQSPVSLPVTPGEPASISCNSSQSLLHSNGYAHLDWYLQKPGQSPKLMIYLGLNRAFGVPDRFSGSGSGTDFTLKISRVEAEDVGVYYCMQALQTPFTFGPGTRVDIK
notes: also called H7.HK1 mAb; H7.HK1 human IgG1
On to B4, for which the binding result in experiment [1], in experiment [2], in experiment [3] and in experiment [4] was “binds” throughout.
